# Source: publication PMC10235943
# Key:
# endogenous IP3R1 = endogenous IP3R1 (UniProt Q14643); experiment: sucrose density gradient fractionation
# [1] = molecular target: transiently expressed IP3R1 (wild type) (human) (UniProt Q14643); experiment: sucrose density gradient fractionation
# Sequence of endogenous IP3R1, Q14643-1 1-2758 (receptor) (Q14643 whole entry): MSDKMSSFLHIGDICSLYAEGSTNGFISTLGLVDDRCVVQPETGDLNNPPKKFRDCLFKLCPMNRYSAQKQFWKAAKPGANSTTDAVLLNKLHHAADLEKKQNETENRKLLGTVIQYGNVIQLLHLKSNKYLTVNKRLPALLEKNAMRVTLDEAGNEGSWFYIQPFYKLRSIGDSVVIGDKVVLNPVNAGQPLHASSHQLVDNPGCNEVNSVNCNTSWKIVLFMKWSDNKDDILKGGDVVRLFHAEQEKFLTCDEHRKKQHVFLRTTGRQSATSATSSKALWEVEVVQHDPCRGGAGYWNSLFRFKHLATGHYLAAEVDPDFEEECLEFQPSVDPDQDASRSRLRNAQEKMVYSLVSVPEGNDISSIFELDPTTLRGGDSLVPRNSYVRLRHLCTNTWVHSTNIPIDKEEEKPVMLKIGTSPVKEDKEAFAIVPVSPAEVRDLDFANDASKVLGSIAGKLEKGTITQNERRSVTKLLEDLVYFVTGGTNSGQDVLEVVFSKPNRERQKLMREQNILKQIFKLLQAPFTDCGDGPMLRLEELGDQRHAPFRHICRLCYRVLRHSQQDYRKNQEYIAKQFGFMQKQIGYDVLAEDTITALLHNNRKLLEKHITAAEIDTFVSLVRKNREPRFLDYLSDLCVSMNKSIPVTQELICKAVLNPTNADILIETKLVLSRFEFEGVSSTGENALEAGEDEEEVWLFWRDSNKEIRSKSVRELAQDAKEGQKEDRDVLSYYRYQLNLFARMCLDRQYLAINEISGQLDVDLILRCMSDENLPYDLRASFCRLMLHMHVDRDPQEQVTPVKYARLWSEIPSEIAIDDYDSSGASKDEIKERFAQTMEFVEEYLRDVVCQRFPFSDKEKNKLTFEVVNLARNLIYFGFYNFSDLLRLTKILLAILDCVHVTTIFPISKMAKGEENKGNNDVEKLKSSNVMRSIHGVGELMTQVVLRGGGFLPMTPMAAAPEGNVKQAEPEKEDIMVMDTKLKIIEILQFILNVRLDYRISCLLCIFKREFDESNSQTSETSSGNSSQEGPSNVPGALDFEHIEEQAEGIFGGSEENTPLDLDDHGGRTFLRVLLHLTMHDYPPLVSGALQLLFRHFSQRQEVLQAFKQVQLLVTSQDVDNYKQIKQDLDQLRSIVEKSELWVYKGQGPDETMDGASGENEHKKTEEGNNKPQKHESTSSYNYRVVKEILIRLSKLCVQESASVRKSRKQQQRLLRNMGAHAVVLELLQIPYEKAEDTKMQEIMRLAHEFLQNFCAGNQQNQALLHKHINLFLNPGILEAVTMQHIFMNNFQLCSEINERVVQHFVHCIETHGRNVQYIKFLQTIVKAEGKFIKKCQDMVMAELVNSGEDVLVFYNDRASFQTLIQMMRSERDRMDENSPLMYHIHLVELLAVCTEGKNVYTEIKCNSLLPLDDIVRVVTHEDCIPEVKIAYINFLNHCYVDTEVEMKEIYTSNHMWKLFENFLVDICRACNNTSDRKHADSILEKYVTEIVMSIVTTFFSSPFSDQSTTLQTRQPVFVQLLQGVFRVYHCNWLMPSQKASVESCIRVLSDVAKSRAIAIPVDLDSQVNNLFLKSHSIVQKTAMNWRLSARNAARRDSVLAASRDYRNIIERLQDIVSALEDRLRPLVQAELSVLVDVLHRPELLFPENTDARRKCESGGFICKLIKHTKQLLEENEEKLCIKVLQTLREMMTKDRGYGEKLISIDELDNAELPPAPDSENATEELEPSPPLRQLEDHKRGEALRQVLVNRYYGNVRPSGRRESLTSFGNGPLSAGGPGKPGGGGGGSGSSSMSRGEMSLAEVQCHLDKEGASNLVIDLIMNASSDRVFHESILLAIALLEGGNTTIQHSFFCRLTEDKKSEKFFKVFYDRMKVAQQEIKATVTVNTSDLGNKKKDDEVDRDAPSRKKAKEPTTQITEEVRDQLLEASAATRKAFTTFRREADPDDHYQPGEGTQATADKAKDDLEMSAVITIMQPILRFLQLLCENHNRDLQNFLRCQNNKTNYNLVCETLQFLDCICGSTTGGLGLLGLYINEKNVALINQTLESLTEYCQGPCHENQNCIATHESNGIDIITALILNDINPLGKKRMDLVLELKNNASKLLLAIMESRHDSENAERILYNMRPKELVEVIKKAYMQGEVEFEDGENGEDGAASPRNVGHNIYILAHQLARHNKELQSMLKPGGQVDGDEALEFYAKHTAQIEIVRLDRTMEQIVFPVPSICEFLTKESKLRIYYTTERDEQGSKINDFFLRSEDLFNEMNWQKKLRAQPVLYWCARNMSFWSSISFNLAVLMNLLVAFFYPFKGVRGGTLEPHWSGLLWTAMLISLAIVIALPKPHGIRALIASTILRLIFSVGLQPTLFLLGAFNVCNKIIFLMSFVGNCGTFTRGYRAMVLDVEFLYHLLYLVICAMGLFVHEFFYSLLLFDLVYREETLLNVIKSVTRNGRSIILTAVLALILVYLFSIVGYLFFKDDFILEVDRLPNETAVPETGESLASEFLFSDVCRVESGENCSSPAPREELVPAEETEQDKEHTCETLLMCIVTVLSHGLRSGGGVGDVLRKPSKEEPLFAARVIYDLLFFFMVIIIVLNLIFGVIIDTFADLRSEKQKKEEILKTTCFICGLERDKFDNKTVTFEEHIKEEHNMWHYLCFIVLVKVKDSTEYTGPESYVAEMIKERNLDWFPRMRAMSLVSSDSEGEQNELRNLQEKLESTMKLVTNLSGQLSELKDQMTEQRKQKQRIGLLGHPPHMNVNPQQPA
Substance,stoichiometry N (endogenous IP3R1),stoichiometry N [1]
"endogenous IP3R1, Q14643-1 1-2758 (receptor)",4,–
"transiently expressed IP3R1 (wild type), Q14643-1 1-2758 (receptor)",–,4
